Test results reported in the DeepSol protein solubility set.

Assay: soluble on expression in E. coli; label from the status in PepcDB or PDB records

## MTADSCNPCLTLENTIDVQEVPMTKSVVLADPRGFCAGVDRAILTVQTILKAAEASGKRTREDGLPPVYVRRQIVHNKHVVEDLAGQGAVFVQELAEIPDAAAQAGIPVVFSAHGVSPVVKAEAERRGMHVVDATCPLVGKVHREVLRFVREGYEIVYIGHKGHDEAVGVVGESPEHVHLIEHESDVDSLDFAPDTKLVLLSQTTLSVDETADTIAALKAKFPWIQEPPSSDICYATSNRQAAVKLVAQQSDCVVIVGSANSSNSVRLMEVAQEGLGERGKAYRVDDASELDPAWFEGLESVGISSGASVPDELVSGVIDALQNLGFTGMKSVETIKENMHFVLPAELRRKKLEHHHHHH
  soluble on expression in E. coli: soluble

## MGSDKIHHHHHHMSTAKTLTLEMHLGDLMIGELSFDATADTFAVHYTKDWQQSGFPLSPTIPLDGTGTSNQISMFLVNLLPENKGLDYLIESLGVSKGNTFALIRAIGLDTAGAIAFVPKGALLPETQLRPIKAEEVIQRIEDPTMWPMEIWDGKPRLSVAGVQPKLNLFYNGKEFAFAEGTLSSTHIVKFEKYHHLVINEFITMRLAKVLGMNVANVDIVHFGRYKALCVERFDRRNIPGEQRVLRRHIVDSCQALGFSVSKKYERNFGTGRDVKDIREGVSFNRLFSLAAKCRNPVAAKQDMLQWALFNLLTGNADAHGKNYSFFMTPSGMEPTPWYDLVSVDMYEDFEQQLAMAIDDEFDPNSIYAYQLAAFMDGLGLPRNLLISNLTRIARRIPQAIAEVILMLPPLDEDEASFVAHYKTQLLARCERYLGFVDEVRDVEV
  soluble on expression in E. coli: not soluble

## MGSDKIHHHHHHMTQSSLDPATVELTADQQQAAEAFSSWLDDANHGNPFVLSGFAGSGKTFLSMRLLRQVEDAGLCWTVVAPTHKAVGVLRQALDLEGLRPTWYPSTIHRLLRLKLKRQGDLELCESTEQTAQSLEQLGLVLIDESSMIDSTLLGLALQCAHPFRTRLVFVGDPAQLPPIGEAQSPVFSMHRACTATLQQVVRHQGPVLRLASRLRDGSLPCQSPPCFPLIEDELGRVGCMDQNNWLKRAQAALQSAAIQDNPDAARILCYTNRSLEQLVPHARRAIHGDMADQLPVLPGEVLIARKAVMAPASRSGAETGEEPDMVLGSNREVVVRDVTPERCDLAEFGLEGQSDWSVPVVDTLTAKVRAGELDLELRLQPPVGSEGRRLLDTTLQRLRVEAKAAGKSDGRSLWRRFFLLRDAFASLGPAAVLTVHRSQGSSFGEVFVAGDVFWPQDLSLRRQLVYVAVSRARTGVWLVGKTGAAAQSRWLDQLRSQSSDR
  soluble on expression in E. coli: not soluble

## MMKFKKCLLPVAMLASFTLAGCQSNADDHAADVYQTDQLNTKQETKTVNIISILPAKVAVDNSQNKRNAQAFGALIGAVAGGVIGHNVGSGSNSGTTAGAVGGGAVGAAAGSMVNDKTLVEGVSLTYKEGTKVYTSTQVGKECQFTTGLAVVITTTYNETRIQPNTKCPEKS
  soluble on expression in E. coli: not soluble

## MGSDKIHHHHHHMLLQRSTWPEVEAYLQQSDGIIIPIGSTEQHGPTGLIGTDAICAEAIAQGVADRTQALVGPTINVGMALHHLGFPGSVSLRPSTLLQVIVDYLSSLAQHGFRHFYFINGHGGNIATVRAAFAEFYAVAGDRRCPEPDRLRCHLANWFMVPAVTKLARELYGDEEGSHATPSEVALTQFIYPDSIKTAPLTVEVHSSHAIYAADDFRRRYPDGRMGSNPALATPEHGQQFYESAVAELSQSYQAFLAAD
  soluble on expression in E. coli: not soluble

## MGSDKIHHHHHHMALKHYKNSDSTVFNDAKALFDLNKNILLKGPTGSGKTKLAETLSEVVDTPMHQVNCSVDLDTESLLGFKTIKTNAEGQQEIVFVDGPVIKAMKEGHILYIDEINMAKPETLPVLNGVLDYRRQITNPYTGEVIKAVPGFNVIAAINEGYVGTLPMNEALKNRFVVIHVDYIDGDILKNVIKEQSLLQDDKQIEQIIKFNEDLRTMSKQGQISEEAASIRALLDLCDLITVMPVERAIKRTIIDKLEDEREQQAIYNAVELNF
  soluble on expression in E. coli: not soluble

## KKEEASSKSYRELIIEGLTALKERKGSSRPALKKFIKENYPIVGSASNFDLYFNNAIKKGVEAGDFEQPKGPAGAVKLAKKKSPEVKKEKEVS
  soluble on expression in E. coli: soluble

## MSLEISASIIDISENALEQLGVDWRLHNSRFDLQTGNGTNTMLNNPGSLDSVATTAGAAAAIAATPAGGVLSAVIGGGSRYLMARISALQQTDQARITANPKVATLDNTEAVMDNRQNFYVPVAGYQSADLYAISAGVSLRVLPMVVMDGGTVRIRMNVHIEDGQITSQQVGNLPITSQSEIDTQALINEGDSLLIAGYSVEQQSKSVDAVPGLSKIPLVGALFRTDQTTGKRFQRMFLVTPRVITEGHHHHHH
  soluble on expression in E. coli: not soluble

## MAHHHHHHMHDIGGAELVVAVHQPAAASHGQPFCHEHGKAKTESAGHNLQHAAAIHRNVPKHTRALVVFVARRTPQAVLYGEHGAAADTEVRRKSVHHVRLRPDNAVVHVEHTGQVRTEAALHEDSRARFPATQQRRARHDKPRRQKPDAVQNKRGAVPESRTARGRQHVLRPANRRAQR
  soluble on expression in E. coli: soluble

## MSLDNINHILSKELGISLKQVTSVIEMLDEGNTVPFIARYRKERTGGLTDEVLRKFNERLTYLRNLESRKEDVLRIIEEQEKLTPELKLKIEKATTLTEIEDIYRPFKAKKRTRATMAVEKGLKPLAELILSGEFNGDIVEEANKYINEEKGVKNEEEALQGAMDIISEIISDNADYRKWIRNFVQKDGIIQVKGSSEEQTPYEMYYDYKEPVRTIPSHRILAINRGEKEKILSVKVTCNDDKIIDYLNKKVLKENKITDKYLEESIKDSFKRLIYPSIEREIRSELTSKGEEGAIDIFKANLKALLMQAPIKGKVVMGFDPGFRTGCKVAILDETGKFVENTTVYPTAPQNRIDETISTLKKLIKKHGVQVISLGNGTASRESEEVIAKMLKEIKDETGKELFYVIVSEAGASVYSASELANKEYPDLDVTVRGAISIGRRLQDPLAELVKIDPKAIGVGQYQHDVTQKKLDESLAGIVEDCVNNVGVDLNIATPSLLSYISGINASIAKNIVDYREENGKFKSRKELLKVKRLGQKAYEQCAGFLRVMESKEALDNTSVHPESYKVAKELIKTLGYTEEDEGHHHHHH
  soluble on expression in E. coli: soluble

## GPGSMPAYSEVKGTCGTPVLDQLIGYYVNIQSRKMYYKDFLRIEHQAVRWAFADIRKNSEALAHGLLQTGVRPGDRVLAIQPCNCETFVLQLSCAKIGALLCIVPQDTISADKLRFYLNEFQPRHLVAREWINVPEMKQGELVERNMHFWDTIYNVIPELGLSYPGQKFQWVHSQEFYYLKKIIITDHNMNLLGVTPMRKMLVWGPFSYYEQRLRRLSALLHPDDPVLALEDPNPAMEDKLHITYSHRNCVNAGFLFGQLMQLKAETRFGVMPNHHTDPIGAIIAPYAALTSGAVLVHIHSDMFTDDHAINGIEKLCVEEVETLVGRKADFDLILKHAGNFDADQFEHLRSVVIFEDGIEAPVSEEYLNKLSKALSLDDVYVFRGPIEASYMLTWRTLKKGSQGMVPHVEAKVVGDRGTSDAKVLVAGTRGNLRLKGPHVTAGYYNNAGLMTELIDEHGFASTSREAMIDGKDNITLMSAQTY
  soluble on expression in E. coli: not soluble

## MGSDKIHHHHHHMTGRRIAIAIDSLAGGGAEKVMLTLASTLVELGHEPHLLVLQQDCHHEIPPGLQVHFCFGGDERNIDGFWRTRGSVQKLQQWITGLEERFGKFELFLSNLDKTNLLMTRTGVAPLYCVVHNSIEEELQRQRKLGPFAYLSMLRAKKSLNGQHLITVSKGIANEIAEVGRVQPASVQTIYNPFELEKIQHQASQTADALPKGDYIIHVGRFARQKRHDVLFAALKQMRNPLPLVLLCNNKKKAIKSARKFGVEDRVIIPGFQTNPYPWIKGARLLALSSDYEGLPTVLIESLAVGTPVVSTDCRHGPKEILTGALRRFLVPRRDPAALAMAMDEALTHYPDCDDAEILTQVGAAAVAGKYLKLLTA
  soluble on expression in E. coli: not soluble

## MNNPKPCEWKSNELSRGYIADYKAFNFVDGEGVRCSLYVSGCPFHCEGCYNKAAQSFKYGKPYTKELEDDILKDIGHESVQGLTLLGGEPFLNTATCLSIVKRIRATYGETKDIWSWTGYTWDEMMQETADKLELLSLIDVLVDGRFEQKLFDPNLAFRGSSNQRIIDVQKSLAAGEVVLYELLEHHHHHH
  soluble on expression in E. coli: not soluble

## MATFFLLSAGKAQDRIPACPPLGKTLKMIKPLREMNWANDTIAVQTSFPSAFRETGRDEIIDSIALLTPVFERLRQVRAGLSEDTVRILHIGDSHVRGHIYPQTTGTLLKETFGAVSYTDMGVNGATCLTFTHPGRIADIAAMKPELLILSFGTNESHNRRYNVNLHYNQMDELVKLLRDSLPDVPILLTTPPGSYESFRQRRRKRTYAINPRTVTAAETIRRYAKDHRLLVWDMYDVVGGKRRACTNWTEAKLMRPDHVHYLPEGYILQGNLLYQAIIQAYNDYVSH
  soluble on expression in E. coli: not soluble

## MASMTGGQQMGRDLQVTLYGTIKAGVEVSRVKDAGTYKAQGGKSKTATQIADFGSKIGFKGQEDLGNGMKAIWQLEQKASIAGTNSGWGNRQSFIGLKGGFGTVRAGNLNTVLKDSGDNVNAWESGSNTEDVLGLGTIGRVESREISVRYDSPVFAGFSGSVQYVPRDNANDVDKYKHTKSSRESYHAGLKYENAGFFGQYAGSFAKYADLNTDAERVAVNTANAHPVKDYQVHRVVAGYDANDLYVSVAGQYEAAKNNEVGSIKGKKHEQTQVAATAAYRFGNVTPRVSYAHGFKAKVNGVKDANYQYDQVIVGADYDFSKRTSALVSAGWLKQGKGAGKVEQTASMVGLRHKF
  soluble on expression in E. coli: soluble

## MSYAKEMLDAIEAGQMETAKQLFTQVLAHDDDETQYNLAEELYALGFNGQAKRLYQGLLGRYPDQGDLATALADIAVSDGDTDAALNYLSRIQPGDPAYVQSLVSAADVYQTLGLYEVSEQKLLEAKRLAPDEPVVTFALGEFYFDWGHFAEAISAYNELLAAGTTELAGVNIEARLAASLAQTGQYEDAVAAYEDVGVDALDLNGRFELGGLYLQLDDPAKAITNLQAVIDSDPSYANAYLPLARAYEAQNQPDKALDTVQAGVMVDDTNPTLYALGGKLALSEDNVKLAETYLQKALAIDPEDQGNMLAWSNFLVQEERDQENVDFLDQIDRSGDVDPQIYWNMAKSYDRLENIKKARENYLLAFNRFQDSPDFLHDIIDFFQSTGARAELKAALVRYLKLVPTDDEMQARLDELNAETDLEHHHHHH
  soluble on expression in E. coli: soluble

## MTPAQLTGTTDSHLQSTMVGQKAFLMHPDVANDLLNMIEAAKKAGFKMEIASGFRDFSRQRAIWNGKYEGELPILDSNSQPLNKAALSDEEKLKAILRWSALPGGSRHHWGCDFDVYARNLLPPDTKLQLEPWEYLEGHQLAFYCWLKDHIDEFGFFFPYLQDLGGVAIEPWHISHKAIGQQCAAQLNAEMLKDELVRQNQQHNIAGLESILNNLDSILSTYIRNITPPPEAL
  soluble on expression in E. coli: not soluble

## MGSDKIHHHHHHMFMKNLYIDPDITKASTISSEFYTSTEWFEITKEKIFSKTWQFCISTEELTTNRQLIPFTLLPGYLEEPLLFAKDELGTIRCLSNVCTHRGKILIEEPCVAHKIKCSYHGRRFNFCGELLHMPEFELTKDFPSNNDNLSQISTGILEPFLFASLSPVVPFHEVFAEIKERLFWLPMEKMRLDKEKCKDYVVKSHWALYCENYLEALHIPFVHPSLRKVIDCNTYTTELFRYCNLQLALASPDEVSFDLPKGAQDYGKQVAAYYFWIFPNTMLNFYPWGCSVNVVKPLSPELTQVSFLSFVLDESKFGKGAGGALDQVEQEDERVVESVQRGIKSRYYDIGRFSPTKEQGTHHFQRLLCEFLND
  soluble on expression in E. coli: not soluble

## SLLGQKSQRYKAEEGLQAQGEAPGLMDVQIPTAEEQKAASSSSTLIMGTLEEVTDSGSPSPPQSPEGASSSLTVTDSTLWSQSDEGSSSNEEEGPSTSPDPAHLESLFREALDEKVAELVRFLLRKYQIKEPVTKAEMLESVIKNYKNHFPDIFSKASECMQVIFGIDVKEVDPAGHSYILVTCLGLSYDGLLGDDQSTPKTGLLIIVLGMILMEGSRAPEEAIWEALSVMGLYDGREHSVYWKLRKLLTQEWVQENYLEYRQAPGSDPVRYEFLWGPRALAETSYVKVLEHVVRVNARVRISYPSLHEEALGEEKGV
  soluble on expression in E. coli: soluble
